Measurements as given in patent US20230272045A1 (published 2023).
Like-named read-outs stand apart in the source and are kept apart here.

Experiments:
Experiment in all cases: ELISA
[1] = target: T1, human fibrinogen (human, UniProt P02671 20-644; P02675 31-491; P02679 27-437)
T1 chain 1: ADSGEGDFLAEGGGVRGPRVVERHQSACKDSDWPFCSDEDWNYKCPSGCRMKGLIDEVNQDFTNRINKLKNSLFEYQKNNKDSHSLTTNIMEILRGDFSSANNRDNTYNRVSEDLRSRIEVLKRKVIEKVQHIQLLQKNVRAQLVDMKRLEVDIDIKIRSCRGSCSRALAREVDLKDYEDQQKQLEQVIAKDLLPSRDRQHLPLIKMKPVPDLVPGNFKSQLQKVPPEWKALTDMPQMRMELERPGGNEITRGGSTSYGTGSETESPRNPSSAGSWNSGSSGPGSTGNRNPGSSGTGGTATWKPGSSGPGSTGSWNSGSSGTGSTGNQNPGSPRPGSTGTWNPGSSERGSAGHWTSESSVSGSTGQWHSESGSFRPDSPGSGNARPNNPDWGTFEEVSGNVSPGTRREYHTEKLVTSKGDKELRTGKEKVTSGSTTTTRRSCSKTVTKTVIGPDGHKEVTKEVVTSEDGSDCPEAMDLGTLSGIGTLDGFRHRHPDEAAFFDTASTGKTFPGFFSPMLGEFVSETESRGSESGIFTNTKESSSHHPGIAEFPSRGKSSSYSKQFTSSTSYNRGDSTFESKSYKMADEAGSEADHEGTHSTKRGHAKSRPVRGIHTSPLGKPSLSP
T1 chain 2: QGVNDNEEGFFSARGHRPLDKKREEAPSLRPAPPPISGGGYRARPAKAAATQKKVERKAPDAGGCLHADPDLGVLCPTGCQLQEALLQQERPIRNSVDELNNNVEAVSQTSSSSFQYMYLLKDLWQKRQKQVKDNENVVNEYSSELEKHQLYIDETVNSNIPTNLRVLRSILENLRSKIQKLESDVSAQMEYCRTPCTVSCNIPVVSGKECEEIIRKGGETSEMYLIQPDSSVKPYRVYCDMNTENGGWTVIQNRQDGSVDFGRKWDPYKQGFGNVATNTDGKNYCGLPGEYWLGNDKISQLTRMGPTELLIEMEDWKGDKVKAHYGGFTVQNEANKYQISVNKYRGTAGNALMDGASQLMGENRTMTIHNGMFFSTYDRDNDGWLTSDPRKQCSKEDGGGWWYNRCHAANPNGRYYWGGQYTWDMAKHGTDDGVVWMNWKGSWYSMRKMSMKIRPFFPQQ
T1 chain 3: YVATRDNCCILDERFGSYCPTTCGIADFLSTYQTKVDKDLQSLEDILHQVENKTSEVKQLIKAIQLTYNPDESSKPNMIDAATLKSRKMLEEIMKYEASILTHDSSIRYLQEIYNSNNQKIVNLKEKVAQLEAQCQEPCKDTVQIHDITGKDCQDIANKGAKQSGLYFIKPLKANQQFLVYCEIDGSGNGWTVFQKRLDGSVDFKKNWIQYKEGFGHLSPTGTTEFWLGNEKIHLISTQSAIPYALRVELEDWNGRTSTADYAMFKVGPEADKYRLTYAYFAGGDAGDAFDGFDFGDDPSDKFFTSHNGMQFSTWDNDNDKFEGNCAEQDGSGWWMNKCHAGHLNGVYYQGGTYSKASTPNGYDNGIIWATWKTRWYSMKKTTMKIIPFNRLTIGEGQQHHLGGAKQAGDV

[2] = target: T2, human vitronectin (human, UniProt P04004 20-478)
T2 chain: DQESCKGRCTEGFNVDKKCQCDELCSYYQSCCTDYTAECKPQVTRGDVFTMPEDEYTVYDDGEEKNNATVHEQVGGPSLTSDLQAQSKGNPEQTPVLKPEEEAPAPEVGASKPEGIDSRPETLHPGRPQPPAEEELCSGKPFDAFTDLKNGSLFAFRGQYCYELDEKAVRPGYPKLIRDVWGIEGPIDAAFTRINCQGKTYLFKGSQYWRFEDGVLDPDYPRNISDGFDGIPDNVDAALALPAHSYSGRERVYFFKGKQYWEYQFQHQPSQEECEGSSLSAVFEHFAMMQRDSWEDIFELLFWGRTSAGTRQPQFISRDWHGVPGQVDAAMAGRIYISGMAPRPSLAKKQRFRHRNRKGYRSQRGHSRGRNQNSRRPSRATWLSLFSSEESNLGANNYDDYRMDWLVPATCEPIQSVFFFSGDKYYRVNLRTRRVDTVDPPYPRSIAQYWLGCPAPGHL

[3] = target: T3, human plasma fibronectin (human, UniProt P02751 32-2296)
T3 sequence (P02751 other isoform, or with tags, fused parts or gaps): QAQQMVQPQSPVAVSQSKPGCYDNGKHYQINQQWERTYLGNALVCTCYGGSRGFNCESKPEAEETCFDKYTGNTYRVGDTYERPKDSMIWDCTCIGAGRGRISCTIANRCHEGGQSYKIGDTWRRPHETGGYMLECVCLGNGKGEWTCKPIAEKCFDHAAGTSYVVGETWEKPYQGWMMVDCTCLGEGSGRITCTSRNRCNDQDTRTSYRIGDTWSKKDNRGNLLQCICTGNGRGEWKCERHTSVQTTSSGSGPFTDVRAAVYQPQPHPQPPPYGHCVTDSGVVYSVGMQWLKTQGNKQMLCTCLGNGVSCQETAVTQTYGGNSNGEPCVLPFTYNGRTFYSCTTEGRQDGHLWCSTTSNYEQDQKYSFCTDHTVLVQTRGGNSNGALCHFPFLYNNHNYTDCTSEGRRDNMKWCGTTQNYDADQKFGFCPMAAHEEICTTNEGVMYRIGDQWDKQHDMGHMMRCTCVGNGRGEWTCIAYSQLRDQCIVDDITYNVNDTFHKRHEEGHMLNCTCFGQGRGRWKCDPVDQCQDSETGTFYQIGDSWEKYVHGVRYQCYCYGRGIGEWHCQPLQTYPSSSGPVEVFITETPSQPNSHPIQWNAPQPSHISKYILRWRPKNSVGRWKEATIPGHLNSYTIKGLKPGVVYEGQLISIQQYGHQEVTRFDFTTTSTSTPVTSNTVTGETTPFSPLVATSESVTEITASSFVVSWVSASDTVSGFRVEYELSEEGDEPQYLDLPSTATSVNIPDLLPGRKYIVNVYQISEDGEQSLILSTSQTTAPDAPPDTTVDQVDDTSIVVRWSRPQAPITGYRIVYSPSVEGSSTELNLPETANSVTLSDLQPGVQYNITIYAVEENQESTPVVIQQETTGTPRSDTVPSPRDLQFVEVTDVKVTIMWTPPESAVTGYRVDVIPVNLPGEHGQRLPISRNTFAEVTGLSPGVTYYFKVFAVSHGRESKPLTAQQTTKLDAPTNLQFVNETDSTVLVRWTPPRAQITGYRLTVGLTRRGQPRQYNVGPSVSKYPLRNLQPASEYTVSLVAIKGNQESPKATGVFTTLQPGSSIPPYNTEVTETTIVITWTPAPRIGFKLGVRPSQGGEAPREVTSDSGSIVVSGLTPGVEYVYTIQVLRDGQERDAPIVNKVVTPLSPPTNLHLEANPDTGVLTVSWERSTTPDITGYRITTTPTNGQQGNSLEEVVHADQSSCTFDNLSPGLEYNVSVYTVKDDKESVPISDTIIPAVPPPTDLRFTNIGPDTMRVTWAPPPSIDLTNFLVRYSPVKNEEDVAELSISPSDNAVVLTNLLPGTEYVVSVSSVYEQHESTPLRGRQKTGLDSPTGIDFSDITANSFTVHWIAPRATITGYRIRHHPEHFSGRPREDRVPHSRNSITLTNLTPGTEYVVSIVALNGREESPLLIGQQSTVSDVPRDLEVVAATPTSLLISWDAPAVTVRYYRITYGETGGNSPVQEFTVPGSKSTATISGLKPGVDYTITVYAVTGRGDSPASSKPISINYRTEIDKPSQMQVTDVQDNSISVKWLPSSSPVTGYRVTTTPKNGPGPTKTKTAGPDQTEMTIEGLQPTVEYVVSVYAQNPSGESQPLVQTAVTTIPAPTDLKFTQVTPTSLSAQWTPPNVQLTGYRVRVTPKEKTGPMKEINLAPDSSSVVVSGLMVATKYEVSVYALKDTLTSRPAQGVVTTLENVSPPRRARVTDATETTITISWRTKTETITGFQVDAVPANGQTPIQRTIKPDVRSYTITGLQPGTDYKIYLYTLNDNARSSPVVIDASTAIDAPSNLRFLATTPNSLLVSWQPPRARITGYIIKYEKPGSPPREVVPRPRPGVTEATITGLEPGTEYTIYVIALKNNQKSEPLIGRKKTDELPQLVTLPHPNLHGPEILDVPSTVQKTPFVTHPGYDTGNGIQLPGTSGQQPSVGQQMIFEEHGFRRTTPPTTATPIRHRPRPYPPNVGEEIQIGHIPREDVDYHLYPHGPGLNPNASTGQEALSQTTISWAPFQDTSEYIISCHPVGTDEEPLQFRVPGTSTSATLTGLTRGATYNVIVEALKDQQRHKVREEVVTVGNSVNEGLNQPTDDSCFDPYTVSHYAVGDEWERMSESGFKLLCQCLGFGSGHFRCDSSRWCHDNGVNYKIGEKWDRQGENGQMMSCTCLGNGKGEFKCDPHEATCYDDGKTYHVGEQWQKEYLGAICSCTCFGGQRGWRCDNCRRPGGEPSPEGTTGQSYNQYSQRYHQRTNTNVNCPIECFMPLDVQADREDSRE

[4] = target: human tenascin C (human, UniProt P24821 23-2201)
Chain of human tenascin C (P24821 23-2201): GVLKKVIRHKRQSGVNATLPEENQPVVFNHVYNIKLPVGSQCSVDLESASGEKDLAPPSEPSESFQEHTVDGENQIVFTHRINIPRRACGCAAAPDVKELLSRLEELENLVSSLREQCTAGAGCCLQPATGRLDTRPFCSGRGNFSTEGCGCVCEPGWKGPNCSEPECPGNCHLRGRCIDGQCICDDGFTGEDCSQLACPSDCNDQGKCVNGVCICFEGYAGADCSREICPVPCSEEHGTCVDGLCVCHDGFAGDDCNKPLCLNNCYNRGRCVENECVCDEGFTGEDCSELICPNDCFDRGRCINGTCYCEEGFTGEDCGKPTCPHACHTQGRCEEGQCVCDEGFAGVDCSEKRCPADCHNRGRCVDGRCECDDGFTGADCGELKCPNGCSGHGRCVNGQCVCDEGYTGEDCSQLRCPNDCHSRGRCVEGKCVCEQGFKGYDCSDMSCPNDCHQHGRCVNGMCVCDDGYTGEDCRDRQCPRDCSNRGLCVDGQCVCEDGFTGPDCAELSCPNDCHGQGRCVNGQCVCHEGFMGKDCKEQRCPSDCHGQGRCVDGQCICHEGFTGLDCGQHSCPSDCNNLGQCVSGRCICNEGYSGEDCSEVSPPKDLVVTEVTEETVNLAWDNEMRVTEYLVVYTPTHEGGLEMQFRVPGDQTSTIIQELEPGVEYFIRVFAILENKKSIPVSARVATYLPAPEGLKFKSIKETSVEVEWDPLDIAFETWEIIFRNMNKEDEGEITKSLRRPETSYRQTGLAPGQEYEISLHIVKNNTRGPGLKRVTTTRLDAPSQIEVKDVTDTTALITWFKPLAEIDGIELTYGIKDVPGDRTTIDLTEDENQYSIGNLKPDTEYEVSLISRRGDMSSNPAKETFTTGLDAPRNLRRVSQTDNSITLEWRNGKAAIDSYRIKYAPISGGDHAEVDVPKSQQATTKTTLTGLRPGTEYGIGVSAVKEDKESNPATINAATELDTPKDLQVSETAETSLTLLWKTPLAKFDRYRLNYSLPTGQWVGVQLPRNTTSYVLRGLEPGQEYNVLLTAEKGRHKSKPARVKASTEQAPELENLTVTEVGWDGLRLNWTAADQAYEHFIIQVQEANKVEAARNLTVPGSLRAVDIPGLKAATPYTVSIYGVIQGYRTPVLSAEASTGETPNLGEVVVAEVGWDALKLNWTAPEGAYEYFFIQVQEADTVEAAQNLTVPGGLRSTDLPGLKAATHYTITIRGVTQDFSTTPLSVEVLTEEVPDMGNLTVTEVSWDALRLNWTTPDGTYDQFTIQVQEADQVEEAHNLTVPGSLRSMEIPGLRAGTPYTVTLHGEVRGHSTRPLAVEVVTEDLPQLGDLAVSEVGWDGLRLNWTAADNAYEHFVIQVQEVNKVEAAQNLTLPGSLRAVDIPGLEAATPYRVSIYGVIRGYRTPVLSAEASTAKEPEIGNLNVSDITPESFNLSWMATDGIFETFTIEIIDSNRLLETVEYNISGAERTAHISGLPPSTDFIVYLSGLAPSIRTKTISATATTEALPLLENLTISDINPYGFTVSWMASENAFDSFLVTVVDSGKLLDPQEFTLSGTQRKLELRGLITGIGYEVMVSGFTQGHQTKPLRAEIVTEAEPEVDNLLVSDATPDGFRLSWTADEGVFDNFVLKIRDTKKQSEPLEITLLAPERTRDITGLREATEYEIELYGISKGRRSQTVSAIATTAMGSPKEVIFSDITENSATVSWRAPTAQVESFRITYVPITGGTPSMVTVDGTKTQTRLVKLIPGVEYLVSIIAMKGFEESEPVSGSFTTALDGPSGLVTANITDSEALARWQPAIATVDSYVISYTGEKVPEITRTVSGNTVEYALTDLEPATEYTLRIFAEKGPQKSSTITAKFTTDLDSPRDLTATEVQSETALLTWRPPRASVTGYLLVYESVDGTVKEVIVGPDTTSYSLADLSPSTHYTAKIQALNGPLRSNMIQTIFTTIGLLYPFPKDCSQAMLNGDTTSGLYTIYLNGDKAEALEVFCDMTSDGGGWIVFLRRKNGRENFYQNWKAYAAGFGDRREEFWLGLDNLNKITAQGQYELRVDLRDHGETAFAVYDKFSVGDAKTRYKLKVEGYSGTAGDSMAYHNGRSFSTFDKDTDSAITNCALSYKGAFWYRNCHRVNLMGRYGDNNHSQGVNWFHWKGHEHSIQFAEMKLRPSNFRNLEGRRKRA

[5] = target: T2, human vitronectin
[6] = target: T3, human plasma fibronectin; remark: listed apart in the source

B1: BMP-2 (bone morphogenetic protein-2, Peprotech) (ligand)
chain: QAKHKQRKRLKSSCKRHPLYVDFSDVGWNDWIVAPPGYHAFYCHGECPFPLADHLNSTNHAIVQTLVNSVNSKIPKACCVPTELSAISMLYLDENEKVVLKNYQDMVVEGCGCR
Kd [1]: 46.4 nM | Kd [2]: 12.6 nM | Kd [3]: 49.9 nM | Kd [4]: 19.5 nM

B2: PDGF-BB (murine wild-type platelet-derived growth factor-BB) (ligand)
chain: SLGSLAAAEPAVIAECKTRTEVFQISRNLIDRTNANFLVWPPCVEVQRCSGCCNNRNVQCRASQVQMRPVQVRKIEIVRKKPIFKKATVTLEDHLACKCETIVTPRPVT
Kd [5]: 29.8 nM | Kd [6]: 60.2 nM
